For 1 substance, stoichiometry N results are on record in publication PMC2581579.

The target of this test is mutant ferritin light chain p.Phe167SerfsX26 (MT-FTL) homopolymer (human) (UniProt P02792). Kind of test: SEC. A general note: In gel filtration, larger molecules generally elute earlier.

Take “mutant ferritin light chain p.Phe167SerfsX26 (MT-FTL) homopolymer (from UniProt P02792 1-166) (natural protein)”: the stoichiometry N amounted to 24.

What is called stoichiometry N is a count of units in the complex or per binding partner.
